# Laboratory results as given in the domain aggregation screens of Martell et al. (2025).
# Test: soluble fraction after stress (log2 fold change); higher = more stays soluble; pooled small domains, quantitative proteomics
# Details: stress: pH 4
# Method in brief: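 Following acid stress at pH 4, the amount of each small protein domain still soluble was measured in pooled custom libraries by high-throughput quantitative proteomics. Its fold change, on a log2 scale, is higher when more of the domain stayed soluble. This fold change is taken as a measure of aggregation propensity.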
row,Sequence,soluble fraction (log2)
1,HMQQFGANVRLIRKARQMSIKQLSELSGVSQTMISEVERGLKIPTIDVAGKIAAALGIDLTNLMG,0.0733
2,HMQQIQILPDGKIKLPDLSGTNMREAIEILHKGGLRMKPYGSGNAYQQKPAAGETVASGTTVEVLSL,0.0974
3,HMQQLAEQIPTDRPYISIAEAVVLFGISRDTIYRQIRKGNIPAVNLGERLTRISRIHIEAMFPKV,-0.282
4,HMQQNYREMHKVKKGETLFGIARRYEITVDQLIKANPDMNAVGYELKKGDYIFIPYPDGQKP,-0.116
5,HMQRAEQLPAELAAVFRAETEAWGFFERQPPGYQRVAIHWVASAKQEATRLRRLAKLIEESAAGRR,-1.43
6,HMQRDTIAISAIPTAIKTYLSSTYPTDTLVHAFVNKDQSIVVISKNIDFYATSFSTANAFIKRIQLPA,0.156
7,HMQRFIHITVSDVHQATRLLEEEMQLTNYSVAENNAIKIFEFTYEPQEINHLFGKNGIEVSSLFIGS,-0.345
8,HMQRNLILKLDTDQPEIYKKLESIFVEINGLLVPFFIEKIIWSKQDSLNILFKNSSEALVEQLIGKNVFLP,0.0162
9,HMQRSVNYSELHEIKERVFDALYSSPMSMPDLLAWLKGDEEHTISVIRLMQDNGDIEMGEDGRLAVV,-0.629
10,HMQSISLEEAKSAALDDAQLGIDEVEFLKTERNTDGDTSYYDIQFLVNGTIYKYQINTETGAILHVDYEA,-0.511
11,HMQSITAGDKVRVKNYTVSGGKKRGKVYGGAGTFVVYYEKYDVISVTGDRVVIGIGKAVTAAVHIDDLEK,-0.932
12,HMQSKSEINELPKSIHMAFSPKNFELFIDNLKINEIDFSNWKGELNTIQERVDGQRQIWIQDPQGYWIEIN,-0.335
13,HMQSLIVPVPKPEDDPVYKDGIKQDPVEVVSIWLGRDYLNMILNLKVSTGKGHTFGIVEDVS,-0.383
14,HMQSNDTAEIEAVVKEIMAANERVVNDYRSGNTKVVSFFVGQVMKATKGKANPKVVNEVLAKLLK,0.169
15,HMQSVPELDQQFKIAIENNDFIKLAQLKEQGYHPSKEVMQSLSNTTPNNTIIAVQKIFGLKA,-0.185
16,HMQSVSANSVQKQLADIIDGEDKTHPLSDRELTEKLVAQGVQISRRTVAKYREAMGIPGASGRKQ,0.107
17,HMQTAAANPSPESILQAREAAGLSQSEAGALIYSGLRSWQHWEWGTRRMHPGLFELFLKKTGQI,-1.02
18,HMQTKMVYSDLVNSIKSEQVSSMLVSGNTVTVTLTNGDKAKVKIPSLDTLQADVGKEMNDQMDKGTLKQE,-0.123
19,HMQTKNYVYFNNTENWSTVNVYVWSSKDSTYMSWPGKAMESIGNNTYRFELPNGAEYAIFNNGSAQTVD,-0.185
20,HMQTKSDMVYHRVREDIVNGVFAPGERLLISAVAKQYGVSEIPVREAFRVLSQEGFLKTRPNSGFVVS,-0.294
21,HMQTMTAGERREAILRELEQAQGPVSASALAKRFHVSRQAVVGDVAMLRALNSPIAATPRGYVLTR,0.0633
22,HMQTMTDDQVMQYVISQQEKGATQQDIVSKLLQKGVTVDQMRRIRKKYEAQQSQPGALDLTGSS,-0.0786
23,HMQTNEAIINQAVQAAEAQNITTRSQAVDALKANGMTEAQARQLAVQRGISYDQLINELFPME,0.108

row,Sequence,soluble fraction (log2)
1,HMQTPVTVGDTMPNLIGTPKRLLLELLNRTDITVKLTGDGYVTAQSPAAGTPIAKGMIIELSL,0.19
2,HMQTQVEVLVKYVLEDGTVYKEDKVSADIGAILDSGDLPMLSNDMKFIDDFLFYEVKESDNVIERKVAKLV,-1.41
3,HMQTQYIVDTKTTLLVRTGPGKSNSQFGRLKNGETINVYAIKNGWAEISYNGKTGYVSEQYIKLA,0.327
4,HMQTTDTGAIETIVDELMAANPDKVEAYRGGKTGLQGFFMGQVMKQLGGQGNPKVISAIVTEKLE,0.257
5,HMQTTPAGHELLIRYFANGNIRERGMMKDGKRNGIWIFYDESGMEIRKTKYKMGKIISDYDLN,0.0593
6,HMQTTQQLIRNLRLKQAATLLADKRHSITEVATLTGFTHPTYFATAFREMFGVSPSEYMEQHI,0.126
7,HMQTYNQLKRGMTEWIQAGQKQKAYELFAGVAGQLSLSSAAGKKQYNELVTILNRAGFGIPLE,≥ 0.43
8,HMQVEMVLSQEAHEWLLQRGFIPEYGAREMDRVIAAHLKPLLMREILFGTLKAGGKVRVQVENGALKLQP,-1.74
9,HMQVLSESDVEDIKAISGGDKAYDNLMEWAGSKLSKQDAKDYDDVLATGNKTAITFAVKALMAQYENAN,-1.05
10,HMQVPFGFQRNPSTGTLEEKAEEQLIINQVLSLKNSGIGVSEISKRLGELSVSRIYRIINTAKKNAS,-0.107
11,HMQVSDANQLTDVVKSIIKQYPVEVEKYKSGKKALFGFFMGKVMENLKGKSNPKILKNVLTEILD,0.263
12,HMQVSDTNTLEQFAKEVIEANPKAVEDYHQNPLAIGFLVGQLMKVSKGSANPQTGKEILEKLL,-0.185
13,HMQVSDVTTIRALVEEVLSSSPQQLAQYRAGKLSLKGYFVGQVMKKGKGQLNAAAVNNLLDEIL,0.36
14,HMQVSEQVQRLLDALENDTLTTKELMDRLGLKHRPTFRKNYLLPSMKLGLVEMTIPDKPNSSRQKYRRRQ,0.00707
15,HMQVTEVDYGTFMKMVEEKNVGEVEVGNSMIVFTDKDGKAIYKTGAMNDPNLTERLYNAGASFTKE,-0.209
16,HMQVTGLTAENAHRVTMIREKGTDHPPVPFHFRKEHHGTGNYVHLYGNPEDRNELHSRDFKDWEAVAFK,0.319
17,HMQVVDWSQVDKEDYLLATKRRAVSTGELKFLLLNNLTYDLTQTRFFKGMDASYYYEGYNLYQTGE,-0.693
18,HMQWGKVRRLPSGRYQASYVHKGTRYTAPETYTVQGRAHGWIESERRLIVTDTWTPPDTRPS,-0.202
19,HMQWLDSIRSRLRVGQTISYFEPRENASSSGLIIELRRKRVLVLEIATQKRWLIEYAAINVDG,-0.325
20,HMQWQPSEEAMQRLEQHGIPRAFSFSQLDAFVLQGQEQGSNRNDWNTRFFRFIKNQWVYAQN,-1.17
21,HMQYDSYTVEEPAKLLDWLLAHLRQSRTKIKATLQGHGIKVNGKTVTQFDYPLEPGMKIRVSLTK,-0.622
22,HMQYKTRVINLSILEVGMVLGRDLINKDGKIIVKKDVAISDFLKDHLIGLSKIKEIEPQIYIKV,-0.452
23,HMQYSIQVNKLLKAMREDVWYTANEILDLLKLKSKETLRKNYLDPAINNKLIILELPDKPTSRNQRYKI,-0.289

row,Sequence,soluble fraction (log2)
1,HMQYTQKTMYINDSYVNLRKSASTSSDIIMVVELNTKLTVIGEDGDWYKVKTSSGNAYVLKTLLSNEKKET,-0.368
2,HMQYTTDEVRERVLSVLNQLLLRWIVREGKDMFNIQANAVEISEGIKGELNTELEKIGLAATGFQIDSV,-0.678
3,HMRADRLISMLMLLQARGKITAEELAVELGVSQRTIYRDIEALSFAGVPVYAERGPGGGIGLLEPY,-1.21
4,HMRAEPNSNYSLAIIYKNRYDIAVKKKDAVKEVEYGKMVYEYLNKYVVLSGNKSAKYKKILNYFSSY,-0.445
5,HMRAFTPSEAQVAHARRVMEAFWQHQREGHGAFALDGKMVDAPIVKAAARVLARAGLQDPNHPIHLA,0.0106
6,HMRALPFSFANRHGVLIREISDGVAHAVYRIGSSPLGLAEARRFVGMPLMLTPVAREAFDSLLQQTYEQG,-0.612
7,HMRAPEIEAARSDLDVGQTVQIVRHLHGNQYEVFYRGAQWQAEAVGSSGANDAQTAVITGKNGNILLIQI,-0.297
8,HMRAVPTKLAPFVEVLKAMLEADGHRPKAQRRTAKALHLELISRGYAGGYTRLTDYIRDWRQQQG,-0.411
9,HMRDANYFINPIHEWQKRYEALRASFVDRLPAQAVAQRFGYTITYIHLLRHQFKSGKIDFSEPVPEG,-1.91
10,HMRDFTQPQTASIGPRMREALARGTMTVEELREQFRTQEFPHESVRTAFLEELERVAAELGLA,-1.62
11,HMRDISTDTSAWTFQDIKRYYDPQDLLTEKQVGQALSLIKGRNLNPLLNEVYIVAYKKKNGGAEFSLIV,-0.286
12,HMRDPLNTGFRQTLKDIVNSLPKNELYSPGVREEYIYPKIGVTSLGMEASMVLNGLISSRRKNIELKEKN,0.179
13,HMRDPVDKDNYLGDWDKNKTYPAGYVMTFGDKNYLALQEVPAGTKPGATDPDPFWVLDTGKTLKD,0.163
14,HMRDQARQFFIDTWAKFQRHDALTPLEEKTAAIIALHPEYHRVLQNPESFITTDWRPESGDINPFMHL,-0.803
15,HMRDSYEVEGRIASVSPAAGTFVVAGVTVDYTGARFVGGTVAQLAPGVKVEVEGRRLANGTLQAREIEFD,-0.12
16,HMRDSYTFEDIEKLKDSYLQDSEKALEKLISIYEDTNQSLAIRTAALDIITDSQDPTFKLALEKIIS,-0.751
17,HMRDTAKTLLAMEVVGENNKKNLQAFGIQKGDQNYQTAVVVRLMQKALMEGDTSAIRLIGELTGD,-0.44
18,HMRDTLSKQLLTEEMVLQFIREMREHDPGIGGEKLHAMYLGRFGRDYEYMVGRDKMEMIIAENNLNVR,-1.05
19,HMRDYDFGNLLYKLRIESGYTQKDIADMLGVTDKAVSKWENGIAKPTTNNIKLLSTIYNVSVEELLNG,-0.754
20,HMRDYKTALQEWVQRTPGQPIAYRLVDELGPDHARVFVMEVTVGGQSAGQGRGRTKKEAEQLAARAALEKL,-0.0915
21,HMREEIESVYKTLAVTEIPYIARGNSARLGSGIQTVYDFYRMEGMQVSKILGRNGSVLWLELHG,-0.159
22,HMREEMYGLIGFITTSEVTDTFGQMEIKLENEPEMRINVRTNPGESLARGDAAKIISFNNSNGTFLVELTK,-0.564
23,HMREFQVMKQELQEMVHQRLDMSTELSDEAIGDVIDEVIMEKSRNMYISSVTKLTLRQELFNAIR,-2.14
